Source: PMC4234293, “Galactosyltransferases from Arabidopsis thaliana in the biosynthesis of type II arabinogalactan: molecular interaction enhances enzyme activity” (BMC Plant Biology, 2014)

B1: AtGALT31A (Arabidopsis thaliana beta-galactosyltransferase 1 from family GT31, At1g32930), C-terminal mCer3-HA or YFP-HA fusion (enzyme, UniProt Q9MAP8 1-399, looked up)
chain: MGMGRYQKSATSGVSARWVFVLCISSFLLGVLVVNRLLASFETVDGIERASPEQNDQSRSLNPLVDCESKEGDILSRVSHTHDVIKTLDKTISSLEVELATARAARSDGRDGSPAVAKTVADQSKIRPRMFFVMGIMTAFSSRKRRDSIRGTWLPKGDELKRLETEKGIIMRFVIGHSSSPGGVLDHTIEAEEEQHKDFFRLNHIEGYHELSSKTQIYFSSAVAKWDADFYIKVDDDVHVNLGMLGSTLARHRSKPRVYIGCMKSGPVLAQKGVKYHEPEYWKFGEEGNKYFRHATGQIYAISKDLATYISVNRQLLHKYANEDVSLGSWFIGLDVEHIDDRSLCCGTPLDCEWKGQAGNPCAASFDWSCSGICKSVDRMLEVHQRCGEGDGAIWHSSF
notes: AtGALT31A, Arabidopsis thaliana, locus At1g32930; full-length cDNA without stop codon; Two copies that differ only in the tag were used in the FRET experiments: mCer3-HA (donor) and YFP-HA (acceptor); They are kept as one molecule so that the homodimer row has the protein with itself; also called AtGALT31A-mCer3; AtGALT31A-YFP; source: N. benthamiana leaves, Agrobacterium-infiltrated, transient …
B2: AtGALT29A (Arabidopsis thaliana beta-galactosyltransferase 1 from family GT29, At1g08280), C-terminal mCer3-HA or YFP-HA fusion (enzyme, UniProt Q9SGD2 1-398, looked up)
chain: MKRSVRPLFSALLFAFFAATLICRVAIRRSSFSFASAIAELGSSGLMTEDIVFNETLLEFAAIDPGEPNFKQEVDLISDYDHTRRSHRRHFSSMSIRPSEQQRRVSRDIASSSKFPVTLRSSQAYRYWSEFKRNLRLWARRRAYEPNIMLDLIRLVKNPIDVHNGVVSISSERYLSCAVVGNSGTLLNSQYGDLIDKHEIVIRLNNAKTERFEKKVGSKTNISFINSNILHQCGRRESCYCHPYGETVPIVMYICQPIHVLDYTLCKPSHRAPLLITDPRFDVMCARIVKYYSVKKFLEEKKAKGFVDWSKDHEGSLFHYSSGMQAVMLAVGICEKVSVFGFGKLNSTKHHYHTNQKAELKLHDYEAEYRLYRDLENSPRAIPFLPKEFKIPLVQVYH
notes: AtGALT29A, Arabidopsis thaliana, locus At1g08280; full-length cDNA without stop codon; Two copies that differ only in the tag were used in the FRET experiments: mCer3-HA (donor) and YFP-HA (acceptor); They are kept as one molecule so that the homodimer row has the protein with itself; The label in each row tells which copy was meant; also called AtGALT29A-mCer3; AtGALT29A-YFP; source: N. …

Legend:
Assay in all cases: FRET or BRET; acceptor photobleaching FRET, mCer3 donor and YFP acceptor, co-expressed in N. benthamiana leaf epidermal cells; Golgi ROIs, pixel-by-pixel FRET efficiency
[1] = target: B2; details: partners not purified
[2] = target: the molecule itself
[3] = target: B1; details: partners not purified

Binder	FRET efficiency [1]	FRET efficiency [2]	FRET efficiency [3]
B1	29%	19%	
B2		34%	18%
